Laboratory results as given in the DeepSol protein solubility set.

Assay: soluble on expression in E. coli; label from the status in PepcDB or PDB records

Row | Sequence | soluble on expression in E. coli
1 | MEQLTKCEVFRELKDLKGYGGVSLPEWVCTTFHTSGYDTQAIVQNNDSTEYGLFQINNKIWCKDDQNPHSSNICNISCDKFLDDDLTDDIVCVKKILDKVGINYWLAHKALCSEKLDQWLCEKL | soluble
2 | SLYANYKRVYENEALETLKVYTTFLRNALIEVNTLMVHSQHFYKSFMGNLKYILDSVAVNKLKSNYNKDMPVVVVSAGPSLEKNIRFLKDCQDKCIIITGGRTLKTLLDLDIKPDYVCVVDPDVPAYDVMRGTFDCTAPLLFCEYTYYEILRDYKGEKIFFNDIGMLGLQKEFLNYDVDNIFEGGSVAHVCAGLGVYIGGDPIIFIGQDLAYTNDKAHADSAGDTNVEGDKKIVYVEDINGDIIKSDSVLNFYRIKLEEMTQLFKENNFINSTEGGANIKGTKIIPLKEVLKKFCLNKKKDYTLGENIGKYVSREQVVCKLMDAKKIMNKVKKEIEASIDLCSEFLEKENRWNKTIIDNINRKLSKTDKLINSSIGEMEFMRNLILPNIYESSMNKEYKQKYNETEKEKIKRVYKKNILLYNGIKTSIMEAGPEIEKCIKSLKES | not soluble
3 | MRSRHDTYNNDCDRTLVIMAQRTLAYIVSRRQSASGFTTTARARRWHV | not soluble
4 | MVFDRQMKRGQRDWAVRQPDFKAAQYLKEEIGWRVADKVFDLTKFNPLVLDIGCGVGHIAPHLIKENVGKIIQVDMSGGMAQSSAKCEDPEVIVERRTVDEETLDGFHENQFDLLLTSMSAHWINHLPQWMRKCHDIVKPDCPFIGSMLAEDTLYELRCSLQLAELERIGGVSSHISPFVKTQDIGGLLSSAGFDMITLDSDEIQVGYPNMFALMYDLQLMGESHCTHRRNPTIRRDVLVAAEAIYQSMYSSDGKYPATFKIVSFIGWKPGPNMPKAAKRGSQTVSLKDIGKIVEDPEMMRKMSEKDGVDKKK | not soluble
5 | FHHYKILDTNILIDGRIYDLAKTGFLEGTLLVPNFVLYELQYIADSSDSVKRVRGRRGLDILNKLQNEHIMPIEMYEGDFEDIPEVDSKLIALAKQNGGVIVTNDYNLNKVIQFQNVQVLNINSLANALKPRVI | not soluble
6 | MSMSSMSSPSSAVCSPDHFSPSDHLCYVQCNFCQTILAVNVPYTSLFKTVTVRCGCCTNLLSVNMRSYVLPASNQLQLQLGPHSYFNPQDILEELRDAPSNMNMMMMNQHPTMNDIPSFMDLHQQHEIPKAPPVNRPPEKRQRVPSAYNRFIKEEIQRIKAGNPDISHREAFSAAAKNWAHFPHIHFGLVPDNQPVKKTNMPQQEGEDNMVMKEGFYAPAAANVGVTPY | soluble
7 | MGSDKIHHHHHHMIIPHRKPCIESQIKTSGNLDELKMIINDLLYSEKEIQILPSGNSAIHIASEIVSKLNPNSKTLIPDMGGWKGFETYSKLSGLSIEKLKTNLGVVNLEILEEKIKECSAKSLFLTSLAGYLAEQPLKEIAKICSENDCLFIEDVSGKIGGDCGYGDMVVCSTGSPKIINCEYGGFLGFSKKINENLKDKHLKEDIKNLLKTYKMPDIYGKMIEETLISKKSYELCIKFSNIVKENMENAYFKDSQGVSVFLSYENPKEIAKNIDKSVKLNNGKSILTMCPLYERILRKGVVLEIKKMDIHKISENEIYEILNFF | not soluble
8 | MWEVIIMKTYIGKIHLKWCKNCNVPLLGRVCEVCGSKAEEVKLTPPGDPRLGFQYDMDFINKILEEEFGAKNVLNGKIILLNKIPGNEEAYEIIVDGEVKYLIYFDEDKEKWKVKLKLNGAKDLMEKGAYKKIIKIKNDVVEFLKNRKGSVLRPGIVEFTDDIEEKDDVIIVDENDRVVGVGLAVVSSEDIKNMEKGKVVKVRFFIKDNEDYKPGKIYDNLEEAFDLMVRANEGVIDNYERNAIGFIKNTYEKIKKPVMVAFSGGKDSLVTLILTLKALGKDIDVVFIDTGLEFEETLKNVEDVERHYGIKIIRLRGENFWEKVKEYGIPARDYRWCSEICKLEPLKKFIEENYEDDVLSFVGIRKYESFNRATKKRIHRNTYIKKQINALPIFHWSSLHVWIYLLREKAPYNKLYEKGFDRIGCFMCPAMEMGEMNKIKREFPKLWEKWENVLREYAEKHNLGEGWIKKGLWRWKHKRQ | soluble
9 | MGSDKIHHHHHHMTNTLKTSYQKTPYKLGGNGPRNVGVLTEALQNIDDNSESDIYGNGAVIENFETKIAKILGKQSAVFFPSGTMAQQIALRIWADRKENRCVAYHPLSHLEIHEQDGLKELQQITPILLGTANRLLTIDDIKSLREPVSSVLIELPQREIGGQLPSFEELEEISEYCHEQGISLHLDGARLWEIMPFYQKSAEDICSLFDSVYVSFYKGIGGIAGAILAGNADFVQEAKIWKRRYGGDLISLYPYILSADYYFEKRIGKMAEYFEAAKGLAERFNSCPGLKTVPEVPISNMFHVYFEKSADEVGTILTKIQDETGVGISGYLQEKSADVCAFEVSVGDAFAEIPTKDLESAFECLEKELRL | not soluble
10 | LKPYCRPSTSVVLQGLPMVARKTLFMLPDGGGSAFSYASLPRLKSDTAVVGLNCPYARDPENMNCTHGAMIESFCNEIRRRQPRGPYHLGGWSSGGAFAYVVAEALVNQGEEVHSLIIIDAPIPQAMEQLPRAFYEHCNSIGLFATQPGASPDGSTEPPSYLIPHFTAVVDVMLDYKLAPLHARRMPKVGIVWAADTVMDERDAPKMKGMHFMIQKRTEFGPDGWDTIMPGASFDIVRADGANHFTLMQKEHVSIISDLIDRVMA | soluble
11 | DIQMTQSPSSLSASVGDRVTITCKASQDIKSFLSWYQQKPEKAPKSLIYYATSLADGVPSRFSGSGSGTDYTLTISSLQPEDFATYYCLQHGESPYTFGGGTKVEIKRTVAAPSVFIFPPSDEQLKSGTASVVCLLNNFYPREAKVQWKVDNALQSGNSQESVTEQDSKDSTYSLSSTLTLSKADYEKHKVYACEVTHQGLSSPVTKSFNRGECT | soluble
12 | MGHHHHHHSHMAGAAEDARALFRAGVCAALEAWPALQIAVENGFGGVHSQEKAKWLGGAVEDYFMRNADLELDEVEDFLGELLTNEFDTVVEDGSLPQVSQQLQTMFHHFQRGDGAALREMASCITQRKCKVTATALKTARETDEDEDDVDSVEEMEVTATNDGAATDGVCPQPEPSDPDAQTIKEEDIVEDGWTIVRRKK | soluble
13 | MGASRMTEIIDISLDITEDTVVMPENPEFDKERLASIGKEGYELYKICMSNHIGTHIDAPAHFVSEGALINQLDLDTLMGKALVVEIKDEHKISVDELKRVNLKDNIRLLFKTRNSELIAENKLTKDFVYIEEQAAGHLVKNGVKLIGLDYFTIDRIEDQDKPAHKEFAGNGVVVIEGVNLLNVEPGEYELVALPIKINADGAPARVILRRLEHHHHHH | soluble
14 | MSAKRCASYYNATIKQESDYPELEGDIHVDVTIIGGGFTGVATAVELSEKGYKVALLEANKIAWGATGRNGGQVTGSLSGDAAMTKQLRRHLGQDAEDYVWNLRWRGHDIIKNRVAKYGIDCDLKFGHIQTAYHPGHMQELQQMFDEANRRGMGEFMTLVPAQEMSAYLASPLYHGGLVNRRNMHLHSVNLCLGEARAAASLGAQIFEHSQVLDIQQAELATVVTPKGTVKANSVLIAGNAYHKLGRPKLRGMLFPASLGNCATAKLPEELAKQLNPQNLAVYDCRFVLDYYRLTADNRLMFGGGTNYSGRDPKNVAAELRPAIERTFPQLKGVDIEFAWAGMAGIVINRIPQLGKISPNIFYCQGYSGHGVATSHIMAEIMGQAIDGQMQEFDLFAAMRHIRIPLNEWFGNQALALGMLYYTLRENWRLEHHHHHH | not soluble
15 | MSLSDTTKTASTRTSVTDQEALDFHAQGRPGKLEITPTKPMATQRDLSLAYSPGVAVPVKAIAENPATAYDYTTRGNMVAVISNGTAILGLGNLGALASKPVMEGKSVLFKRFADVDSIDLEVDTEDADEFINCVRYLGPSFGGINLEDIKAPECFIIESRLRELMDIPVFHDDQHGTAIIAAAGLINAIELTGRDFKTTKLVCNGAGAAAIACMDLIKAMGFNPENITLCDTKGVIYQGRTEGMNQWKSAHAVKTDRRTLTEAMNGADVVFGLSQKGAFTEEMIRSMAPKPIIFAMANPDPEITPEEVSRIRDDAIMATGRSDYPNQVNNVLGFPYIFRGALDVRARQINDAMKIAAAQALADLAREDVPDDVAAAYQGNRPRFGSQYIIPVPFDPRLISAIPVAVAKAAIETGVAQREIPDLDAYARELSARRDPMASTTQRLYERVRRSPKRVVFAEAEEEQVMRAAISFTAQGLGTAILLGRDDIIKANAERAGIDLDRANIEITNARLSSRVDAYVDYLYARLQRGGFLLRDVQRLIHNDRNHFAACMVAMGDADAVVTGVTRNYSTALEDIRRCINTKPGHRVIGVSLVVSRNRTVFVADTAVHDMPNAEDLADIAEEAAHLARRFGYEPRVAMLAYSTFGQPVGERSDKVREAVKILDKRNVNFEVDGEMSADVALNHQRMQSQYPFARLSGAANVLVMPAIHSASISTKMLQELGGATVIGPLLVGLDKSVQITSMGAKDSDIVNMAAIAAYNAGREGHHHHHH | not soluble
16 | MRNLTFLTRCKPLAASVLALMLLGGAAKSFANNDLPDLGTAAVNTFSLEKEMIYGDAYMRVIRSSAPMLNDPVLSQYLTELGNKLVAHATGVKTPFYFFLLQNDEINAFAFFGGHVAVHTGLFLNADNESELASVLGHEITHVTQRHLARSLEAQQKTGPATVAGLLGAILLTIAVPQAGMAALATTQAMATQSKINYTRLHEKEADRIGMQILVDAGFDPNASAEFFGKLASRYRFTTTPPQMLLTHPLPESRISEARDRAQQYPHRYVPDNLNFQLAKARIQVRFSSFSDDAVLSMFEKQLNKQTYGFKEAALYGKALALFRLKKFDESEKIVDELLKIDDNNLFYIDTKTDLLNERKDYAQAIKLLEAQRNLKPTSQVINANLANIYIEAGEPAKAIPLLEDMIFLDKQNQLPYQLLNLAYKKLGNPGMEYFSNAELMALGANYKGAIDQLNFAYRASEGNQLQLARIEARIRQFKQADREMDALKLEHHHHHH | not soluble
17 | MQDFDFSFNPKACEGCGAKCCVGESGYIFLNIQEMQQISAFLKLELEEFSQKYVKKVGYKFSLLEKDAKELGLACVFLDLETKKCQIYSVRPKQCQTFPFWEGVKTFSKEQKEAFCQSCPGITQKTKETKVRLEHHHHHH | not soluble
18 | MGSDKIHHHHHHMEEQREILEQLKKTLQMLTVEPSKNNQIANEEKEKKENENSWCILEHNYEDIAQEFIDFIYKNPTTYHVVSFFAELLDKHNFKYLSEKSNWQDSIGEDGGKFYTIRNGTNLSAFILGKNWRAEKGVGVIGSHVDALTVKLKPVSFKDTAEGYGRIAVAPYGGTLNELWLDRDLGIGGRLLYKKKGTNEIKSALVDSTPLPVCRIPSLAPHFGKPAEGPFDKEDQTIPVIGFPTPDEEGNEPPTDDEKKSPLFGKHCIHLLRYVAKLAGVEVSELIQMDLDLFDVQKGTIGGIGKHFLFAPRLDDRLCSFAAMIALICYAKDVNTEESDLFSTVTLYDNEEIGSLTRQGAKGGLLESVVERSSSAFTKKPVDLHTVWANSIILSADVNHLYNPNFPEVYLKNHFPVPNVGITLSLDPNGHMATDVVGTALVEELARRNGDKVQYFQIKNNSRSGGTIGPSLASQTGARTIDLGIAQLSMHSIRAATGSKDVGLGVKFFNGFFKHWRSVYDEFGEL | not soluble
19 | MSSEKRVGMVEKSNNKRQRVNQVPVFSINDHHDVLVEILRRLDGSSLCSAACVCRLWSAVARNDSIWEELCFRQVSPRPSLSLRSVVSALGGYRCLYFLCIRPVLARLPKLLWTRDQLQLSLSLYCVHYYERLYVGAWLGDAPPSSLIFLRKPVNVV | soluble
